Laboratory results: patent US20120189541A1 (AbbVie / Abbott, published 2012)
Numbering of substitutions follows the chain as printed.

B1: E26.13-SS-3D12.10/15 (bispecific antibody, human IgG1, kappa, L234A L235A)
heavy: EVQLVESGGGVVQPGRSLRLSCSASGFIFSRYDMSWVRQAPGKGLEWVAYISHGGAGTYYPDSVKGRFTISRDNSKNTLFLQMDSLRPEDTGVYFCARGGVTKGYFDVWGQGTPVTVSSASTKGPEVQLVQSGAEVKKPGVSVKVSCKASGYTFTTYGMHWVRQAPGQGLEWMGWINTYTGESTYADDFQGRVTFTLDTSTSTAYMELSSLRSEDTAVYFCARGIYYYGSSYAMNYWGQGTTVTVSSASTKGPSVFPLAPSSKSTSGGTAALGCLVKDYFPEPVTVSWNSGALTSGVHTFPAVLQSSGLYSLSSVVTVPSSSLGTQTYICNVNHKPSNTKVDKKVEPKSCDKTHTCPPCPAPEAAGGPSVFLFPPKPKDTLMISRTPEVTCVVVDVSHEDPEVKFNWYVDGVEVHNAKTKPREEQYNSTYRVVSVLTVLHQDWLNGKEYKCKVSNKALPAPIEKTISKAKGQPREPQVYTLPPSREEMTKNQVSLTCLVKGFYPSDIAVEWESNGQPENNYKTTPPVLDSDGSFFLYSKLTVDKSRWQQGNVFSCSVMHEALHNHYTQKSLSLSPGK
light: DIQMTQSPSSLSASVGDRVTITCRASGNIHNYLTWYQQTPGKAPKLLIYNAKTLADGVPSRFSGSGSGTDYTFTISSLQPEDIATYYCQHFWSIPYTFGQGTKLQITRTVAAPDIQMTQSPSSLSASVGDRVTITCRASQDISNMLNWYQQKPGKTPKLLIYYTSRLYPGVPSRFSGSGSGTDYTFTISSLQPEDIATYFCQQGKTLPYAFGQGTKLEIKRTVAAPSVFIFPPSDEQLKSGTASVVCLLNNFYPREAKVQWKVDNALQSGNSQESVTEQDSKDSTYSLSSTLTLSKADYEKHKVYACEVTHQGLSSPVTKSFNRGEC
notes: DVD-Ig, outer (N-terminal) domain anti-IL-1β, inner domain anti-IL-1α, short linkers
B2: E26.35-SS-3D12.10/15 (bispecific antibody, human IgG1, kappa, L234A L235A)
heavy: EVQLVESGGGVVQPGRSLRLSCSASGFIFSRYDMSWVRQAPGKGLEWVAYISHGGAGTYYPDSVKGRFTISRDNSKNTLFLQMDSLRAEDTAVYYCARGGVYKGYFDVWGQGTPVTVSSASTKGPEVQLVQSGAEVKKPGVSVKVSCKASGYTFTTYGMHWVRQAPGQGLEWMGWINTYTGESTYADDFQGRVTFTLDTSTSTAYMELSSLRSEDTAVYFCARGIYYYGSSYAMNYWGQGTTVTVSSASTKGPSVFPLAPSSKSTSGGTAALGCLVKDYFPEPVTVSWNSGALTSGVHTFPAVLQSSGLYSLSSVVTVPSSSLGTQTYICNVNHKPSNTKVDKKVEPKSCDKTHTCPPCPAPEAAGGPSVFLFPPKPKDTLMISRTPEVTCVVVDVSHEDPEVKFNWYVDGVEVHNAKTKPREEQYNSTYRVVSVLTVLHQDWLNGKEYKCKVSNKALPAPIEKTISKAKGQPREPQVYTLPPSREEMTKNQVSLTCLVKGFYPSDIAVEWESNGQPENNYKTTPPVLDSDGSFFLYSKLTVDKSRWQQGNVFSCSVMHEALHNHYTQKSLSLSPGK
light: B1 light
notes: DVD-Ig, outer domain anti-IL-1β, inner domain anti-IL-1α, short linkers
B3: 3D12.10/15 (antibody, human IgG1, kappa, L234A L235A, V domains shown)
VH: EVQLVQSGAEVKKPGVSVKVSCKASGYTFTTYGMHWVRQAPGQGLEWMGWINTYTGESTYADDFQGRVTFTLDTSTSTAYMELSSLRSEDTAVYFCARGIYYYGSSYAMNYWGQGTTVTVSS
VL: DIQMTQSPSSLSASVGDRVTITCRASQDISNMLNWYQQKPGKTPKLLIYYTSRLYPGVPSRFSGSGSGTDYTFTISSLQPEDIATYFCQQGKTLPYAFGQGTKLEIKR
notes: Parent anti-IL-1α antibody; also called 3D12 10/15VH; 3D12 10/15VL
B4: 3D12r16 (antibody, human IgG1, kappa, L234A L235A, V domains shown)
VH: EVQLVQSGAEVKKPGASVKVSCKASGYTFKYYGMNWVRQAPGQGLERMGWINTYTGQSTYADDFKGRVTFTLDTSTSTAYMELSSLRSEDTAVYYCARDIYYYGSDFAMDYWGQGTTVTVSS
VL: B3 VL with T43A, Y55K, L94A, A97T
notes: Parent anti-IL-1α antibody; also called 3D12r16VH; 3D12r16VL
B5: 1B12.1 (antibody, human IgG1, kappa, L234A L235A, V domains shown)
VH: EVQLQESGPGLVKPSETLSLTCTVSGFSLSDYGVSWIRQPPGKGLEWLGLIWGGGDTYYNSPLKSRLTISKDNSKSQVSLKLSSVTAADTAVYYCAKQRTLWGYDLYGMDYWGQGTLVTVSS
VL: DTQVTQSPSSLSASVGDRVTITCITSTDIDVDMNWYQQKPGKPPKLLISQGNTLRPGVPSRFSSSGSGTDFTFTISSLQPEDFATYYCLQSDNLPLTFGQGTKLEIKR
notes: Parent anti-IL-1β antibody; also called 1B12.1VH; 1B12.1VL
B6: 1B12.3 (antibody, human IgG1, kappa, L234A L235A, V domains shown)
VH: B5 VH
VL: DTVVTQSPAFLSVTPGEKVTITCITSTDIDVDMNWYQQKPDQPPKLLISQGNTLRPGVPSRFSSSGSGTDFTFTISSLEAEDAATYYCLQSDNLPLTFGQGTKLEIKR
notes: Parent anti-IL-1β antibody; also called 1B12.3VH; 1B12.3VL
B7: 1B12.6 (antibody, human IgG1, kappa, L234A L235A, V domains shown)
VH: EVQLVESGGGLVQPGGSLRLSCAVSGFTLSDYGVSWIRQAPGKGLEWLGLIWGGGDTYYNSPLKSRLTISKDNSKSTVYLQMNSLRAEDTAVYYCAKQRTLWGYDLYGMDYWGQGTLVTVSS
VL: B5 VL with D1E, Q3T
notes: Parent anti-IL-1β antibody; also called 1B12.6VH; 1B12.6VL
B8: 3D12.8 (antibody, human IgG1, kappa, L234A L235A, V domains shown)
VH: EIQLVQSGSELKKPGASVKVSCKASGYTFTNYGMNWVRQAPGQDLERMAWINTYTGESTYADDFKGRFVFSLDTSVSTAYLQISSLKAEDTAVYFCARGIYYYGSSYAMDYWGQGTTVTVSS
VL: B3 VL with M32C, Y55H, P56S
notes: Parent anti-IL-1α antibody; also called 3D12.8VH; 3D12.8VL
B9: 3D12.16 (antibody, human IgG1, kappa, L234A L235A, V domains shown)
VH: B8 VH with S9A, L11V, V69T, S71T, V76T, L81M, Q82E, I83L, K87R, A88S
VL: B3 VL with M32C, Y55H, P56S
notes: Parent anti-IL-1α antibody; also called 3D12.16VH; 3D12.16VL

Target: T1, Recombinant Human IL-1α (human, UniProt P01583 113-271)
T1 sequence (looked up): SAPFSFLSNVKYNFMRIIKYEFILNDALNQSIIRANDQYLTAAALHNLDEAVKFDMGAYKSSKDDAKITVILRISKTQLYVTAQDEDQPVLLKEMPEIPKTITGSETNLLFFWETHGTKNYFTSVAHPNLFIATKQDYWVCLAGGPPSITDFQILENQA
Assay: cell-based or functional assay

B1 and B2 are within 1.5-fold of each other in “Human IL-1α Neutralization Assay EC50 (IL-1 induced hIL-8, MRC-5 cells)” value: 53.8 pM for the first, 47.9 pM for the second.

Going from B3 to B4, the “Human IL-1α Neutralization Assay EC50 (IL-1 induced hIL-8, MRC-5 cells)” value falls from 5.7 pM to 0.56 pM (10-fold).

Target: T2, Recombinant Human IL-1β (human, UniProt P01584 117-269)
Assay: cell-based or functional assay

Going from B1 to B2, the “Human IL-1β Neutralization Assay EC50 (IL-1 induced hIL-8, MRC-5 cells)” value (from here on “Human IL-1β Neutralization Assay EC50”) falls from 9.9 pM to 2 pM (5-fold).

Compared with B5, B6 is 2-fold higher in “Human IL-1β Neutralization Assay EC50” value: 150 pM for the first, 300 pM for the second.

For B7, the “Human IL-1β Neutralization Assay EC50” value was 380 pM.

Target: T3, Cynomolgus IL-1α (cynomolgus, UniProt P79340 113-271, limits assumed)
T3 sequence (looked up): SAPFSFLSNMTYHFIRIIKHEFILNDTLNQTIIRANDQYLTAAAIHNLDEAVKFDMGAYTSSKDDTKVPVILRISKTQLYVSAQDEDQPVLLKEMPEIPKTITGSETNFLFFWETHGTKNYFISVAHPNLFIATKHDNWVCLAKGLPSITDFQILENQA
Assay: cell-based or functional assay

B1 and B2 are within 1.5-fold of each other in “Cyno IL-1α Neutralization Assay EC50 (IL-1 induced hIL-8, MRC-5 cells)” value: 62.6 pM for the first, 81 pM for the second.

Going from B3 to B4, the “Cyno IL-1α Neutralization Assay EC50 (IL-1 induced hIL-8, MRC-5 cells)” value falls from 12.6 pM to 0.8 pM (16-fold).

Target: T4, Cynomolgus IL-1β (cynomolgus, UniProt P79182 117-268, limits assumed)
T4 sequence (looked up): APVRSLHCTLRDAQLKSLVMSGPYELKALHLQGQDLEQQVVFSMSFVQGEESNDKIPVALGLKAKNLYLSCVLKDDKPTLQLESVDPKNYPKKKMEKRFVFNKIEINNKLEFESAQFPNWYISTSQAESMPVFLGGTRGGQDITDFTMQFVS
Assay: cell-based or functional assay

Going from B1 to B2, the “Cyno IL-1β Neutralization Assay EC50 (IL-1 induced hIL-8, MRC-5 cells)” value rises from 5.6 pM to 12.1 pM (2.2-fold).

Target: T1, Recombinant Human IL-1α
Assay: SPR (BIACORE), human antigen
Method: (§1) The BIACORE assay (Biacore, Inc, Piscataway, N.J.) determines the affinity of antibodies or DVD-Ig molecule with kinetic measurements of on-rate and off-rate constants. Binding of antibodies or DVD-Ig molecule to a target antigen (for example, a purified recombinant target antigen) is determined by surface plasmon resonance-based measurements with a Biacore® 1000 or 3000 instrument (Biacore® AB, Uppsala, Sweden) using running HBS-EP (10 mM HEPES [pH 7.4], 150 mM NaCl, 3 mM EDTA, and 0.005% surfactant P20) at 25° C. All chemicals are obtained from Biacore® AB (Uppsala, Sweden) or otherwise from a different source as described in the text. For example, approximately 5000 RU of goat anti-mouse IgG, (Fcγ), fragment specific polyclonal antibody (Pierce Biotechnology Inc, Rockford, Ill.) diluted in 10 mM sodium acetate (pH 4.5) is directly immobilized across a CM5 research grade biosensor chip using a standard amine coupling kit according to manufacturer's instructions and procedures at 25 μg/ml. Unreacted moieties on the biosensor surface are blocked with ethanolamine. Modified carboxymethyl dextran surface in flowcell 2 and 4 is used as a reaction surface. Unmodified carboxymethyl dextran without goat anti-mouse IgG in flow cell 1 and 3 is used as the reference surface. For kinetic analysis, rate equations derived from the 1:1 Langmuir binding model are fitted simultaneously to association and dissociation phases of all eight injections (using global fit analysis) with the use of Biaevaluation 4.0.1 software. Purified antibodies or DVD-Ig molecule are diluted in HEPES-buffered saline for capture across goat anti-mouse IgG specific reaction surfaces. Antibodies or DVD-Ig molecule to be captured as a ligand (25 μg/ml) are injected over reaction matrices at a flow rate of 5 μl/min. The association and dissociation rate constants, kₒₙ (M⁻¹s⁻¹) and koff (s⁻¹) are determined under a continuous flow rate of 25 μl/minute. Rate constants are derived by making kinetic binding measurements at different antigen concentrations ranging from 10-200 nM. The equilibrium dissociation constant (M) of the reaction between antibodies or DVD-Ig molecules and the target antigen is then calculated from the kinetic rate constants by the following formula: KD=koff/kₒₙ. Binding is recorded as a function of time and kinetic rate constants are calculated.

B1 and B2 are within 1.5-fold of each other in Kd: 569 pM for the first, 403 pM for the second.

Compared with B3, B4 is 3.7-fold lower in Kd: 115 pM for the first, 31 pM for the second. The second binds more tightly here.

Going from B8 to B9, the Kd rises from 1350 pM to 2090 pM (1.5-fold). The first binds more tightly here.

B1 and B2 are within 1.5-fold of each other in koff: 3.25e-05 s⁻¹ for the first, 2.34e-05 s⁻¹ for the second.

B3 and B4 are within 1.5-fold of each other in koff: 4.1e-05 s⁻¹ for the first, 2.77e-05 s⁻¹ for the second.

B8 and B9 are within 1.5-fold of each other in koff: 0.00274 s⁻¹ for the first, 0.00253 s⁻¹ for the second.

B1 and B2 are within 1.5-fold of each other in kon: 56900 M⁻¹ s⁻¹ for the first, 58100 M⁻¹ s⁻¹ for the second.

Going from B3 to B4, the kon rises from 355000 M⁻¹ s⁻¹ to 900000 M⁻¹ s⁻¹ (2.5-fold).

First: B8
Second: B9
The kon of the first is 1.7-fold higher: 2.04e+06 M⁻¹ s⁻¹ for the first, 1.21e+06 M⁻¹ s⁻¹ for the second.

Target: T2, Recombinant Human IL-1β
Assay: SPR (BIACORE), human antigen
Method: as §1

First: B1
Second: B2
The Kd of the first is 2.6-fold higher: 16.1 pM for the first, 6.11 pM for the second.

B5 and B6 are within 1.5-fold of each other in Kd: 186 pM for the first, 206 pM for the second.

B7 showed a Kd of 202 pM.

First: B1
Second: B2
The koff of the first is 3.4-fold higher: 2.65e-05 s⁻¹ for the first, 7.85e-06 s⁻¹ for the second.

B5 and B6 are within 1.5-fold of each other in koff: 0.00103 s⁻¹ for the first, 0.00118 s⁻¹ for the second.

B7 gave a koff of 0.00125 s⁻¹.

B1 and B2 are within 1.5-fold of each other in kon: 1.66e+06 M⁻¹ s⁻¹ for the first, 1.28e+06 M⁻¹ s⁻¹ for the second.

B5 and B6 are within 1.5-fold of each other in kon: 5.55e+06 M⁻¹ s⁻¹ for the first, 5.73e+06 M⁻¹ s⁻¹ for the second.

B7 was tested, and the kon was 6.2e+06 M⁻¹ s⁻¹.

Target: T3, Cynomolgus IL-1α
Assay: SPR (BIACORE), cynomolgus antigen

B3 showed a Kd of 57.8 pM.

In the case of B3, the koff is reported as 2.25e-05 s⁻¹.

Binder B3 has a kon of 389000 M⁻¹ s⁻¹.

Target: T1, Recombinant Human IL-1α
Assay: capture ELISA: antibody captured by anti-human Fc, biotinylated antigen titrated
Method: (§2) Plates were washed five times in washing buffer (PBS containing 0.05% Tween 20) and blocked for 1 hour at 25° C. with 200 μl per well superblock blocking buffer (Thermo scientific, #37515). Blocking buffer was removed, and 2 μg/ml of each antibody or DVD-Ig molecule in PBS containing 10% superblock, 0.5% Tween-20 was added to the wells at 100 μl per well and incubated at 25° C. for 1 hour. The wells were washed five times in 1×PBST, and 1 μg/ml biotinylated antigen was titrated at 1:6 serial dilutions (for a range of μg to pg in PBS containing 10% superblock, 0.05% tween 20). Each dilution of antigen was then added to the plates and incubated for 1 hour at 25° C. The wells were washed five times in 1×PBST and incubated for 1 hour at 25° C. with polyHRP streptavidin (KPL #474-3000, Gaithersburg, Md.). The wells were washed five times in 1×PBST, and 100 μl of ULTRA-TMB ELISA (Pierce, Rockford, Ill.) were added per well. Following color development the reaction was stopped with 1N HCL and absorbance at 450 nm is measured.

Going from B3 to B4, the EC50 rises from 7 pM to 72 pM (10-fold). The first is the more potent here.

Going from B8 to B9, the EC50 falls from 28 pM to 10 pM (2.8-fold).

Target: T2, Recombinant Human IL-1β
Assay: as above
Method: as §2

B5 and B6 are within 1.5-fold of each other in EC50: 39.9 pM for the first, 43.8 pM for the second.

B7 showed an EC50 of 45.9 pM.
